From patent US20240174746A1 (Alector, published 2024) come the findings set out here.

Assay [1] addresses T1, human TMEM106B (human, UniProt Q9NUM4 2-274).
T1 construct: Full-length cDNA transiently transfected into HEK293 cells; also called huTMEM106B
The assay can be described thus: flow cytometry, HEK293 cells transiently transfected with human TMEM106B.
Experimental: (§1) For screening of the hybridoma cell culture supernatants, humanTMEM106B-transfected HEK293 cells were aliquoted in 96-well round bottom plates (2×10⁵ cells per well) and incubated with 50 μL of hybridoma cell culture supernatant on ice for 30 minutes. […] Cell sorting was performed on a FACS Canto system (BD Biosciences) or iQue (Intellicyt), with sort gates drawn to exclude dead (i.e., propidium iodide-positive) cells. Median fluorescence intensity (MFI) of anti-mouse-APC MFI on TMEM106B+ HEK293 cells was calculated for each clone, and those displaying a signal of at least 2-fold over background compared to a secondary-antibody only well were taken forward for further analysis and characterization.

Assay [2] concerns the target T2, cynomolgus (cyno) TMEM106B (cynomolgus, UniProt Q9NUM4 2-274 (human entry)).
T2 construct: Full-length cDNA transiently transfected into HEK293 cells
The assay can be described thus: flow cytometry, HEK293 cells transiently transfected with cyno TMEM106B. (A flow cytometer gives signals particle by particle.)
Experimental: as §1

Assay [3] deals with T3, mouse TMEM106B (mouse, UniProt Q80X71 2-275).
T3 construct: Full-length cDNA transiently transfected into HEK293 cells; also called muTMEM106B; murine TMEM106B
The assay is described as follows: flow cytometry, HEK293 cells transiently transfected with murine TMEM106B.
Experimental: as §1

B1: TM-80 (antibody, V domains shown)
VH: QVQLQQPGAELVKPGASVKLSCKASGYTFTTFWMHWVKQRPGQGLEWIGNIDPSDSETHYNQEFKDKATLTVDRSSNTAYMQLSSLTSEDSAVYYCARSSNWDNFDYWGQGTAVTVSS
VL: DIVMTQAAPSVPVTPGESVSISCRSSQSLLHVNGHTYLYWFLQRPGQSPQLLIYRMSNLASGVPDRFSGSGSGTVFTLRISRVETEDVGIYYCMQHLQYPFTFGSGTKLEIK
notes: Purified from mouse hybridoma
B1: the “fold-change in binding over parental HEK293 cells” value (from here on “fold-change in binding”) in assay [1] was found to be 9.21 fold; in assay [2], 4.33 fold; in assay [3], 0.39 fold.

B2: TM-84 (antibody, V domains shown)
VH: QVQLQQSGAELVKPGASVKMSCKASGYTFTTFPIEWMKQNHGKSLEWIGNFHPYNDDTKYNEKFKGKATLTVEKSSSTVYLELSRLTSDDSAVYYCARYFYGGMDYWGQGTSVTVSS
VL: DIQMTQSPASLSVSVGETVTITCRASENIYSSLGWYHQKQGKSPQLLVFAATNLADGVPSRFSGSGSGTQYSLKINSLQSEDFGTYYCQHLWSVPWTFGGGTKLEIK
notes: Purified from mouse hybridoma
Turning to B2, the “fold-change in binding” value was determined as 17.1 fold in assay [1], 8.43 fold in assay [2] and 9.62 fold in assay [3].

B3: TM-94 (antibody, V domains shown)
VH: EVQLQQSGPELVKPGASVKIPCKASGYTFTDYNMDWVKQSHGKSLEWIGDINPYNGGTLYNQKFKGKATLTVDKSSNTAYMEIRSLTYEDTAVYYCARVGYHGTPDYWGQGTTVTVSS
VL: DVVMTQTPLSLPVSLGDQASISCRSSQSLVYSNGNTYLHWYLQRPGQSPKLLIYKVSNRFSGVPDRFSGSGSGTDFTLKISRVEAEDLGVYFCSQSTHVYTFGGGTKLEIK
notes: Purified from mouse hybridoma
B3: the “fold-change in binding” value was found to be 3.79 fold in assay [1], 6.1 fold in assay [2] and 2.35 fold in assay [3].

B4: TM-87 (antibody, V domains shown)
VH: EVQLQQSGPVLVKPGASVKLSCKASGYTFTDYYMNWVKQSHGKSLEWIGVINPYNGATSYNQKFQDKATLTVDKSSSTAYMGLNSLTSEDSAVYYCANGNYDWYFDVWGTGTTVTVSS
VL: DVQITQSPSYLAASPGETITINCRASRSISKYLAWYQEKPGKTNKLLIYSGSTLQSGIPSRFSGSGSGTDFTLTISSLEPEDFAVYYCQQHNEYPLTFGAGTKLELK
notes: Purified from mouse hybridoma
As for B4, the figures for the “fold-change in binding” value in assay [1], in assay [2] and in assay [3] were 12.8 fold, 7.21 fold and 27 fold, respectively.

B5: TM-92 (antibody, V domains shown)
VH: EVQLQQSGPELVKPGASVKIPCKASGYTFTDYTMDWVKQSPGKSLEWIGHINPNDGGTFYNQKFKGKATLTVDKSSSTAYMELRSLTSEDSAVYYCARWVYYYGISYEGGAMDYWGQGTSVTVSS
VL: DVQITQSPSYLAASPGETITINCRASKSISKYLAWYQEKPGKTNKLLIYSGSTLQSGIPSRFSGSGSGTDFTLTISSLEPEDFAMYYCQQHNEYPWTFGGGTKLEIK
notes: Purified from mouse hybridoma
Turning to B5, the “fold-change in binding” value in assay [1] was determined as 9.14 fold; in assay [2], 5.7 fold; in assay [3], 5.15 fold.

B6: TM-85 (antibody, V domains shown)
VH: QVQLQQPGAELVRAGTSVKLSCKASGYTFIGYWMHWVKQRPGRGLEWIGRIDPYSGDTRYNEKFKNKATLTVDKPSSTAYMQLSSLTSEDSAVYYCARYGLGHAMDYWGQGTSVTVSS
VL: DIAMSQSQKFMSTSVGDRVSVTCKASQNVGTNVAWYQQKPGQSPKALIYSASYRYSGVPDRFTGSGSGTDFTLTISNVQSEDLAEYFCQQYNSYPLTFGAGTKLEMK
notes: Purified from mouse hybridoma
As for B6, the figures for the “fold-change in binding” value in assay [1], in assay [2] and in assay [3] were 0.26 fold, 0.18 fold and 0.19 fold, respectively.

B7: TM-91 (antibody, V domains shown)
VH: DVQLQESGPGLVKPSQSLSLTCSVTGYSITSGYYWDWIRQFPGNKLEWMGYISYDGNNNYNPSLKNRISITRDTSKNQFFLKLNSVTTEDTATYYCARAVYSVGFAYWGQGTLVTVSS
VL: DIVMTQSQKFMSTSVGDRVSVTCKASQNVYTNVAWYQQKPGQSPKPLIYSASYRYSGVPDRFTGSGSGTDFTLTISNVQSEDLAEYFCQQYNSYPLTFGGGTKLEIK
notes: Purified from mouse hybridoma
For the molecule B7, the entries for the “fold-change in binding” value in assay [1], in assay [2] and in assay [3] were 5.22 fold, 2.45 fold and 2.41 fold, respectively.

B8: TM-86 (antibody, V domains shown)
VH: EVQLQQSGPVLVKPGASVKMSCKASGYTFTDYYIHWVKQSHGRSLEWIGVISPYNDNTNYNQKFKGKATLTVDKSSSTAYMELNSLTSEDSAVYYCVRTYYSNYFDYWGQGTTLTVSS
VL: DIVMTQSPSSLSVSAGEKVTMSCKSSQSLLNSGNQKNYLAWHQQRPGQPPKLLIYGASTRESGVPDRFTGSGSGTEFTLTISSVQAEDLAVYYCQNDHSYPLTFGAGTKLELK
notes: Purified from mouse hybridoma
As for B8, the entries for the “fold-change in binding” value in assay [1], in assay [2] and in assay [3] were 9.73 fold, 5.81 fold and 5.78 fold, respectively.

B9: TM-88 (antibody, V domains shown)
VH: EAQLQQSGPVLVKPGASVKMSCKTSGYTFTDYYINWVKQSHGKSLEWIGVINPYSGATYYTQKFKGKATLTVDKSSSTAYMELNSQTSEDSAVYYCARGGYDYGHWYFDVWGTGTTVTVSS
VL: ETTVTQSPASLSMAIGEKVTIRCITSSDIDDHMNWYRQKPGEPPEFLISEGNALRPGVPSRFSSSGYGTDFIFTIENILSEDVADYYCLQSDNLPLTFGAGTKLELK
notes: Purified from mouse hybridoma
B9: the “fold-change in binding” value in assay [1] was 7.81 fold; in assay [2], 7.57 fold; in assay [3], 5.84 fold.

B10: TM-93 (antibody, V domains shown)
VH: QVQLKESGPGLVAPSQSLSITCTVSGFSLSSYGISWVRQPPGKGLEWLGVIWTGGGTNYNSALESRLSITKDNSKSQVFLKMNSLQTDDTARYYCARNPPKIFYDYLMYFDYWGQGTTVTVSS
VL: DIVMTQSHKLMSTSVGDRVSITCKASQDVGSAVAWYQQKPGQSPQLLIYWSSTRLPGVPDRFTGSGSGTDFTLTISNVQSEVLADYFCQQYTSYPLTFGGGTKLEIK
notes: Purified from mouse hybridoma
Regarding B10, the “fold-change in binding” value is 11.5 fold in assay [1], 9.21 fold in assay [2] and 8.83 fold in assay [3].
